Experimental data from patent US20140161799A1 (ARCH ONCOLOGY, published 2014).

Columns and labels:
Assay in all cases: flow cytometry on RBCs, antibody 10 ng/ml
mouse CD47 = target: T1, mouse CD47 (mouse, UniProt Q61735 19-303)
T1 construct: whole, on cells; also called CD47 on mouse red blood cells
T1 sequence (looked up): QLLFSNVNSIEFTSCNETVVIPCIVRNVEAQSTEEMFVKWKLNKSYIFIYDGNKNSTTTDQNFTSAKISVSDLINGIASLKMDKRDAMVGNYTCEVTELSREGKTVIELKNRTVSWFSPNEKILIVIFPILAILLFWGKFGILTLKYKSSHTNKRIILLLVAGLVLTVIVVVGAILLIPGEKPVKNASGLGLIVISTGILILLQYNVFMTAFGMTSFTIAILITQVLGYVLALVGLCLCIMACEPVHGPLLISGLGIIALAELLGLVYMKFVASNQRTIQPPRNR
Protocol: (§1) Cross species reactivity of humanized antibodies of the present invention is determined using freshly isolated red blood cells (RBCs), which display CD47 on their surface, from human, mouse, rat, and pig according to the methods disclosed in Kamel et al. (2010) Blood. Transfus. 8(4):260-266.
(§2) RBCs are incubated for 60 minutes on ice with tissue culture supernatants containing the secreted humanized antibodies at a concentration of 10 ng/ml in a solution of phosphate buffered saline, pH 7.2, 2.5 mM EDTA (PBS+E). Cells are then washed with cold PBS+E, and incubated for an additional hour on ice with FITC labeled donkey anti-human antibody (Jackson Immuno Research Labs, West Grove, Pa.; Catalogue #709-096-149) in PBS+E. Cells are then washed with PBS+E, and antibody binding is analyzed using a BD FACSAria Cell Sorter (Becton Dickinson) or a C6 Accuri Flow Cytometer (Becton Dickinson). Antibody binding is quantitated by comparison of mean fluorescence values relative to that of chimeric antibody >VxP037-01LC (SEQ ID NO:7))/>VxP037-01HC (SEQ ID NO:57). The mean fluorescence value for each antibody is divided by the mean fluorescence value for the chimeric antibody.

rat CD47 = target: T2, rat CD47 (rat, UniProt P97829 19-303)
T2 construct: whole, on cells; also called CD47 on rat red blood cells
T2 sequence (looked up): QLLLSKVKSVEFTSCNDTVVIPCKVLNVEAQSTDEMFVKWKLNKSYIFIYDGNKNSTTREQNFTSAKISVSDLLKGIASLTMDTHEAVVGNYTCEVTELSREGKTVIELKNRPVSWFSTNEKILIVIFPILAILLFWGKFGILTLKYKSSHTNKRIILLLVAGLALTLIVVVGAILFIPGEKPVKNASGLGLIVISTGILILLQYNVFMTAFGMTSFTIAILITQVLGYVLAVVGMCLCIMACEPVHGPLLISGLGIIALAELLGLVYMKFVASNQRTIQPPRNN
Protocol: as §1, §2

pig CD47 = target: T3, pig CD47 (pig, UniProt Q9GKE8 19-303)
T3 construct: whole, on cells; also called CD47 on pig red blood cells
T3 sequence (looked up): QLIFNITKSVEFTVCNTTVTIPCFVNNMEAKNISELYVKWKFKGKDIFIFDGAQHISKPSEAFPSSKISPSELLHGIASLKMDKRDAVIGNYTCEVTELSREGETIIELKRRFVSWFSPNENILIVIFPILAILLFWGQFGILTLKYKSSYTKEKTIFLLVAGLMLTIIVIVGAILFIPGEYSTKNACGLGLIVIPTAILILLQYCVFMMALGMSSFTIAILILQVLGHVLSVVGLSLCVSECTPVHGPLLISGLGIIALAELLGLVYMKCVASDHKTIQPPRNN
Protocol: as §1, §2

human CD47 = target: T4, human CD47 (human, UniProt Q08722 19-323)
T4 construct: whole, on cells; also called CD47 on human red blood cells
T4 sequence (Q08722 19-323): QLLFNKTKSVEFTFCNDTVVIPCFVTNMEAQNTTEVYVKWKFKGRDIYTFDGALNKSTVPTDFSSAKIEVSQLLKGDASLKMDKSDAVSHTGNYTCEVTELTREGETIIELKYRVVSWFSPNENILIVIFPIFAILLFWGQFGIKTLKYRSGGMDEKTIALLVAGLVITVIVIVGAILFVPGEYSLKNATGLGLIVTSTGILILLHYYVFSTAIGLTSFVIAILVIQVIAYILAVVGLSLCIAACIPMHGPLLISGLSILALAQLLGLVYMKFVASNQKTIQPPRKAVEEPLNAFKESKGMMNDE
Protocol: as §1, §2

B1: pVxK7b-037-hum14-LC/pVxK7b-037-hum14-HC (antibody, human IgG1, V domains shown)
VH: QVQLQESGPGLVKPSQTLSLTCTVSGYTFTNYYVFWVRQARGQRLEWIGDINPVNGDTNFNEKFKNRVTISADKSISTAYLQWSSLKASDTAMYYCARGGYTMDYWGQG
VL: DVVMTQSPLSLPVTLGQPASISCRSSQSLVHSNGNTYLHWYQQKPGKAPKLLIYKVSYRFSGVPDRFSGSGSGTDFTLKISRVEAEDVGVYYCSQNTHVPRTFGQG
notes: Full-length human IgG1/kappa in CHO supernatant; Variable entries end within framework 4 (...FGQG / ...WGQG); also called Clone 14
Mouse CD47
  mean fluorescence relative to chimeric antibody: 1.5 fold of chimera
Rat CD47
  mean fluorescence relative to chimeric antibody: 3.2 fold of chimera
Pig CD47
  mean fluorescence relative to chimeric antibody: 1.4 fold of chimera
Human CD47
  mean fluorescence relative to chimeric antibody: 1.1 fold of chimera

B2: pVxK7b-037-hum16-LC/pVxK7b-037-hum16-HC (antibody, human IgG1, V domains shown)
VH: QVQLQESGPGLVKPSQTLSLTCTVSGYTFTNYYVFWVRQARGQRLEWIGDINPVNGDTNFNEKFKNRVTISADKSISTAYLQWSSLKASDTAMYYCARGGYTMDYWGQG
VL: AIQLTQSPSSLSASVGDRVTITCRSSQSLVHSNGNTYLHWYQQKPGQAPRLLIYKVSYRFSGVPDRFSGSGSGTDFTLKISRVEAEDVGVYYCSQNTHVPRTFGQG
notes: Full-length human IgG1/kappa in CHO supernatant; Variable entries end within framework 4 (...FGQG / ...WGQG); also called Clone 16
Mouse CD47
  mean fluorescence relative to chimeric antibody: 1 fold of chimera
Rat CD47
  mean fluorescence relative to chimeric antibody: 2.1 fold of chimera
Pig CD47
  mean fluorescence relative to chimeric antibody: 1.1 fold of chimera
Human CD47
  mean fluorescence relative to chimeric antibody: 0.9 fold of chimera

B3: pVxK7b-037-hum17-LC/pVxK7b-037-hum17-HC (antibody, human IgG1, V domains shown)
VH: EVQLVQSGAEVKKPGATVKISCKVSGYTFTNYYVFWIRQPPGKGLEWIGDINPVNGDTNFNEKFKNRVTITADKSTSTAYMELSSLRSEDTAVYYCARGGYTMDYWGQG
VL: AIQLTQSPSSLSASVGDRVTITCRSSQSLVHSNGNTYLHWYQQKPGQAPRLLIYKVSYRFSGVPDRFSGSGSGTDFTLKISRVEAEDVGVYYCSQNTHVPRTFGQG
notes: Full-length human IgG1/kappa in CHO supernatant; Variable entries end within framework 4 (...FGQG / ...WGQG); also called Clone 17
Mouse CD47
  mean fluorescence relative to chimeric antibody: 0.9 fold of chimera
Rat CD47
  mean fluorescence relative to chimeric antibody: 2.1 fold of chimera
Pig CD47
  mean fluorescence relative to chimeric antibody: 1.3 fold of chimera
Human CD47
  mean fluorescence relative to chimeric antibody: 0.8 fold of chimera

B4: pVxK7b-037-hum18-LC/pVxK7b-037-hum18-HC (antibody, human IgG1, V domains shown)
VH: EVQLVQSGAEVKKPGESLRISCKGSGYTFTNYYVFWIRQSPSRGLEWLGDINPVNGDTNFNEKFKNRVTITADKSTSTAYMELSSLRSEDTAVYYCARGGYTMDYWGQG
VL: EIVLTQSPATLSVSPGERATLSCRSSQSLVHSNGNTYLHWYQQKPGQAPRLLIYKVSYRFSGVPSRFSGSGSGTDFTFTISSLEAEDAATYYCSQNTHVPRTFGQG
notes: Full-length human IgG1/kappa in CHO supernatant; Variable entries end within framework 4 (...FGQG / ...WGQG); also called Clone 18
Mouse CD47
  mean fluorescence relative to chimeric antibody: 1.3 fold of chimera
Rat CD47
  mean fluorescence relative to chimeric antibody: 2.2 fold of chimera
Pig CD47
  mean fluorescence relative to chimeric antibody: 1.2 fold of chimera
Human CD47
  mean fluorescence relative to chimeric antibody: 1 fold of chimera

B5: pVxK7b-037-hum20-LC/pVxK7b-037-hum20-HC (antibody, human IgG1, V domains shown)
VH: QITLKESGPTLVKPTQTLTLTCTFSGYTFTNYYVFWVRQAPGQGLEWMGDINPVNGDTNFNEKFKNRVTITADKSTSTAYMELSSLRSEDTAVYYCARGGYTMDYWGQG
VL: DIVMTQTPLSLPVTPGEPASISCRSSQSLVHSNGNTYLHWYLQKPGQSPQLLIYKVSYRFSGVPDRFSGSGSGTDFTLKISRVEAEDVGVYYCSQNTHVPRTFGQG
notes: Full-length human IgG1/kappa in CHO supernatant; Variable entries end within framework 4 (...FGQG / ...WGQG); also called Clone 20
Mouse CD47
  mean fluorescence relative to chimeric antibody: 1.5 fold of chimera
Rat CD47
  mean fluorescence relative to chimeric antibody: 1.9 fold of chimera
Pig CD47
  mean fluorescence relative to chimeric antibody: 1.7 fold of chimera
Human CD47
  mean fluorescence relative to chimeric antibody: 1.3 fold of chimera

B6: pVxK7b-037-hum22-LC/pVxK7b-037-hum22-HC (antibody, human IgG1, V domains shown)
VH: QVQLQESGPGLVKPSQTLSLTCTVSGYTFTNYYVFWVRQARGQRLEWIGDINPVNGDTNFNEKFKNRLTISKDTSKNQVVLTMTNMDPVDTATYYCARGGYTMDYWGQG
VL: EIVLTQSPATLSVSPGERATLSCRSSQSLVHSNGNTYLHWYQQKPGQAPRLLIYKVSYRFSGVPSRFSGSGSGTDFTFTISSLEAEDAATYYCSQNTHVPRTFGQG
notes: Full-length human IgG1/kappa in CHO supernatant; Variable entries end within framework 4 (...FGQG / ...WGQG); also called Clone 22
Mouse CD47
  mean fluorescence relative to chimeric antibody: 1.2 fold of chimera
Rat CD47
  mean fluorescence relative to chimeric antibody: 2.8 fold of chimera
Pig CD47
  mean fluorescence relative to chimeric antibody: 1.4 fold of chimera
Human CD47
  mean fluorescence relative to chimeric antibody: 1.1 fold of chimera
